Measurements from the supplement of paper PMC10567573.

B1: NP_009172.2 (parent)
chain: LPALFTDLYSQEITAEEAREALP

Variants of: B1
Experiment: protein stability index of a GFP-peptide fusion (GPS, HEK-293T) (PSI 1-6); higher = more stable
Settings: c terminus: native
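Further: lentivirally expressed fusion library, cells FACS-sorted into six equal-sized GFP/DsRed ratio bins, PSI computed from sequencing read fractions per bin weighted by bin number.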

| Variant | protein stability index |
| --- | --- |
| LPALFTDLTSQEITAEEAREALP [Y9T] | 2.74 |
| LPALFTDLLSQEITAEEAREALP [Y9L] | 2.39 |
| LPALFTDLHSQEITAEEAREALP [Y9H] | 4.49 |
| LPALFTDLISQEITAEEAREALP [Y9I] | 1.88 |
| LPALFTDLDSQEITAEEAREALP [Y9D] | 5.38 |
| LPALFTDLASQEITAEEAREALP [Y9A] | 2.34 |
| LPALFTDLVSQEITAEEAREALP [Y9V] | 2.21 |
| LPALFTDLFSQEITAEEAREALP [Y9F] | 2.81 |
| LPALFTDLCSQEITAEEAREALP [Y9C] | 2.42 |
| LPALFTDLKSQEITAEEAREALP [Y9K] | 5.39 |
| LPALFTDLWSQEITAEEAREALP [Y9W] | 2.65 |
| LPALFTDLQSQEITAEEAREALP [Y9Q] | 5.15 |
| LPALFTDLRSQEITAEEAREALP [Y9R] | 5.15 |
| LPALFTDLNSQEITAEEAREALP [Y9N] | 5.01 |
| LPALFTDLSSQEITAEEAREALP [Y9S] | 3.98 |
| LPALFTDLESQEITAEEAREALP [Y9E] | 5.17 |
| LPALFTDLGSQEITAEEAREALP [Y9G] | 5.3 |
| LPALFTDLMSQEITAEEAREALP [Y9M] | 3.13 |
| LPALFTDLPSQEITAEEAREALP [Y9P] | 5.13 |
| LPALFTDLYSQEFTAEEAREALP [I13F] | 2.69 |
| LPALFTDLYSQEPTAEEAREALP [I13P] | 3.87 |
| LPALFTDLYSQEWTAEEAREALP [I13W] | 2.15 |
| LPALFTDLYSQELTAEEAREALP [I13L] | 2.71 |
| LPALFTDLYSQECTAEEAREALP [I13C] | 2.57 |
| LPALFTDLYSQEVTAEEAREALP [I13V] | 2.46 |

| Variant | protein stability index |
| --- | --- |
| LPALFTDLYSQEHTAEEAREALP [I13H] | 2.71 |
| LPALFTDLYSQETTAEEAREALP [I13T] | 3.09 |
| LPALFTDLYSQENTAEEAREALP [I13N] | 3.46 |
| LPALFTDLYSQEATAEEAREALP [I13A] | 2.97 |
| LPALFTDLYSQEYTAEEAREALP [I13Y] | 2.69 |
| LPALFTDLYSQEKTAEEAREALP [I13K] | 2.66 |
| LPALFTDLYSQEDTAEEAREALP [I13D] | 3.25 |
| LPALFTDLYSQEQTAEEAREALP [I13Q] | 2.98 |
| LPALFTDLYSQEGTAEEAREALP [I13G] | 3.81 |
| LPALFTDLYSQESTAEEAREALP [I13S] | 3.26 |
| LPALFTDLYSQEETAEEAREALP [I13E] | 3.25 |
| LPALFTDLYSQEMTAEEAREALP [I13M] | 2.53 |
| LPALFTDLYSQERTAEEAREALP [I13R] | 2.1 |
| LPALFTDLYSQPITAEEAREALP [E12P] | 3.77 |
| LPALFTDLYSQMITAEEAREALP [E12M] | 2.93 |
| LPALFTDLYSQDITAEEAREALP [E12D] | 2.99 |
| LPALFTDLYSQQITAEEAREALP [E12Q] | 2.69 |
| LPALFTDLYSQRITAEEAREALP [E12R] | 2.59 |
| LPALFTDLYSQAITAEEAREALP [E12A] | 3.56 |
| LPALFTDLYSQVITAEEAREALP [E12V] | 3.38 |
| LPALFTDLYSQGITAEEAREALP [E12G] | 3.78 |
| LPALFTDLYSQTITAEEAREALP [E12T] | 3.03 |
| LPALFTDLYSQWITAEEAREALP [E12W] | 2.21 |
| LPALFTDLYSQCITAEEAREALP [E12C] | 3.19 |
| LPALFTDLYSQNITAEEAREALP [E12N] | 3.79 |

| Variant | protein stability index |
| --- | --- |
| LPALFTDLYSQFITAEEAREALP [E12F] | 3.01 |
| LPALFTDLYSQYITAEEAREALP [E12Y] | 3.07 |
| LPALFTDLYSQIITAEEAREALP [E12I] | 3.15 |
| LPALFTDLYSQLITAEEAREALP [E12L] | 3.04 |
| LPALFTDLYSQSITAEEAREALP [E12S] | 3.13 |
| LPALFTDLYSQHITAEEAREALP [E12H] | 3.39 |
| LPALFTDLYSQKITAEEAREALP [E12K] | 2.92 |
| LPALFTDLYSKEITAEEAREALP [Q11K] | 2.4 |
| LPALFTDLYSGEITAEEAREALP [Q11G] | 3.59 |
| LPALFTDLYSWEITAEEAREALP [Q11W] | 2.63 |
| LPALFTDLYSPEITAEEAREALP [Q11P] | 3.82 |
| LPALFTDLYSCEITAEEAREALP [Q11C] | 2.95 |
| LPALFTDLYSMEITAEEAREALP [Q11M] | 2.54 |
| LPALFTDLYSAEITAEEAREALP [Q11A] | 2.7 |
| LPALFTDLYSHEITAEEAREALP [Q11H] | 2.76 |
| LPALFTDLYSLEITAEEAREALP [Q11L] | 2.65 |
| LPALFTDLYSYEITAEEAREALP [Q11Y] | 2.67 |
| LPALFTDLYSDEITAEEAREALP [Q11D] | 3.31 |
| LPALFTDLYSTEITAEEAREALP [Q11T] | 3.21 |
| LPALFTDLYSIEITAEEAREALP [Q11I] | 2.52 |
| LPALFTDLYSEEITAEEAREALP [Q11E] | 2.88 |
| LPALFTDLYSSEITAEEAREALP [Q11S] | 3.04 |
| LPALFTDLYSFEITAEEAREALP [Q11F] | 2.52 |
| LPALFTDLYSVEITAEEAREALP [Q11V] | 2.79 |
| LPALFTDLYSNEITAEEAREALP [Q11N] | 2.92 |

| Variant | protein stability index |
| --- | --- |
| LPALFTDLYSREITAEEAREALP [Q11R] | 2.26 |
| LPALFTMLYSQEITAEEAREALP [D7M] | 2.71 |
| LPALFTYLYSQEITAEEAREALP [D7Y] | 2.56 |
| LPALFTQLYSQEITAEEAREALP [D7Q] | 2.63 |
| LPALFTRLYSQEITAEEAREALP [D7R] | 2.77 |
| LPALFTHLYSQEITAEEAREALP [D7H] | 3.13 |
| LPALFTSLYSQEITAEEAREALP [D7S] | 3.08 |
| LPALFTPLYSQEITAEEAREALP [D7P] | 4.4 |
| LPALFTILYSQEITAEEAREALP [D7I] | 2.49 |
| LPALFTLLYSQEITAEEAREALP [D7L] | 2.61 |
| LPALFTNLYSQEITAEEAREALP [D7N] | 3.52 |
| LPALFTALYSQEITAEEAREALP [D7A] | 2.88 |
| LPALFTTLYSQEITAEEAREALP [D7T] | 2.57 |
| LPALFTKLYSQEITAEEAREALP [D7K] | 3.33 |
| LPALFTGLYSQEITAEEAREALP [D7G] | 4.02 |
| LPALFTFLYSQEITAEEAREALP [D7F] | 2.6 |
| LPALFTCLYSQEITAEEAREALP [D7C] | 3.44 |
| LPALFTWLYSQEITAEEAREALP [D7W] | 2.48 |
| LPALFTVLYSQEITAEEAREALP [D7V] | 2.58 |
| LPALFTELYSQEITAEEAREALP [D7E] | 2.46 |
| LPALFTDLYSQEITFEEAREALP [A15F] | 2.53 |
| LPALFTDLYSQEITGEEAREALP [A15G] | 2.83 |
